The source of these data is the Immune Epitope Database (IEDB).

Some targets named below: HLA-A*31:01; HLA-A*33:01; HLA-A*68:01; HLA-A*11:01; HLA-A*03:01.
Holding throughout (experiment): IEDB peptide-MHC binding, purified MHC/competitive/radioactivity; filed as Kd, often an IC50 or EC50 that approximates it; ≥ and ≤ were set here for values at or beyond the usual limits of such assays
The mark [1] stands for this setting: source organism: Vaccinia virus WR.
[2] abbreviates: source organism: Mammarenavirus machupoense.
The mark [3] stands for this setting: source organism: SARS coronavirus Tor2.
[4] abbreviates: source organism: Lassa virus Josiah.

The Kd is the concentration at which binding is half-saturated.

As for EIIFLKLFK, the Kd in the assay with HLA-A*31:01 (setting [1]) was found to be 0.602 µM; in the assay with HLA-A*33:01 (setting [1]), 0.0993 µM; with HLA-A*68:01 (setting [1]) it was 0.000699 µM; with HLA-A*11:01 (setting [1]) it was 0.00125 µM; with HLA-A*03:01 (setting [1]), 0.0161 µM.

On to YCSTNHLSK, for which the Kd was not below 77.9 µM with HLA-A*31:01 (setting [2]); not below 77.7 µM in the assay with HLA-A*33:01 (setting [2]); not below 23.1 µM with HLA-A*68:01 (setting [2]); 14.9 µM with HLA-A*11:01 (setting [2]); 19.2 µM with HLA-A*03:01 (setting [2]).

For the sequence QMDSMEALEY, the Kd with HLA-A*31:01 (setting [1]) is not below 70 µM; with HLA-A*33:01 (setting [1]), not below 70 µM; with HLA-A*68:01 (setting [1]), 11.8 µM; in the assay with HLA-A*11:01 (setting [1]), 0.755 µM; with HLA-A*03:01 (setting [1]) it was 1.71 µM.

In the case of KSISSMTIR, the equilibrium dissociation constant (Kd) in the assay with HLA-A*31:01 (setting [1]) came out at 0.00364 µM; with HLA-A*33:01 (setting [1]), 7.71 µM; with HLA-A*68:01 (setting [1]), 0.832 µM; in the assay with HLA-A*11:01 (setting [1]), 0.281 µM; in the assay with HLA-A*03:01 (setting [1]), 1.28 µM.

RLSILSKDK: the Kd amounted to 10.7 µM with HLA-A*31:01 (setting [1]); 12.9 µM in the assay with HLA-A*33:01 (setting [1]); 1.08 µM in the assay with HLA-A*68:01 (setting [1]); 1.21 µM in the assay with HLA-A*11:01 (setting [1]); 0.613 µM with HLA-A*03:01 (setting [1]).

On to KFLEFSNRVY, for which the Kd with HLA-A*31:01 (setting [1]) was 0.0245 µM; with HLA-A*33:01 (setting [1]), not below 70 µM; with HLA-A*68:01 (setting [1]), not below 68.8 µM; in the assay with HLA-A*11:01 (setting [1]), 10.1 µM; in the assay with HLA-A*03:01 (setting [1]), not below 39.8 µM.

For EIKQGRVNK, the Kd in the assay with HLA-A*31:01 (setting [1]) is not below 51.3 µM; with HLA-A*33:01 (setting [1]), 3.26 µM; with HLA-A*68:01 (setting [1]), 0.0884 µM; with HLA-A*11:01 (setting [1]) it was 0.517 µM; with HLA-A*03:01 (setting [1]), 0.64 µM.

Consider PIINTHSFY, for which the Kd with HLA-A*31:01 (setting [1]) was not below 77.9 µM; with HLA-A*33:01 (setting [1]), not below 77.7 µM; with HLA-A*68:01 (setting [1]), not below 77.7 µM; in the assay with HLA-A*11:01 (setting [1]) it was not below 77.9 µM; in the assay with HLA-A*03:01 (setting [1]) it was not below 78 µM.

Regarding DARYCSEFIR, the Kd with HLA-A*31:01 (setting [1]) was 1.13 µM; in the assay with HLA-A*33:01 (setting [1]), 0.0243 µM; with HLA-A*68:01 (setting [1]), 0.249 µM; with HLA-A*11:01 (setting [1]), not below 37.2 µM; with HLA-A*03:01 (setting [1]) it was not below 70.1 µM.

With SSSIDVDKR, the Kd is 8.95 µM with HLA-A*31:01 (setting [1]); not below 35 µM in the assay with HLA-A*33:01 (setting [1]); 0.146 µM with HLA-A*68:01 (setting [1]); 4.75 µM in the assay with HLA-A*11:01 (setting [1]); not below 78 µM with HLA-A*03:01 (setting [1]).

Turning to VSLLRSTSQK, the Kd came out at 0.175 µM with HLA-A*31:01 (setting [3]); 2.54 µM with HLA-A*33:01 (setting [3]); 6.33 µM with HLA-A*68:01 (setting [3]); 0.172 µM with HLA-A*11:01 (setting [3]); 0.0116 µM in the assay with HLA-A*03:01 (setting [3]).

In the case of FIDRGSIKIK, the Kd in the assay with HLA-A*31:01 (setting [1]) was 2.23 µM; in the assay with HLA-A*33:01 (setting [1]) it was 3.96 µM; with HLA-A*68:01 (setting [1]), 0.86 µM; with HLA-A*11:01 (setting [1]) it was 0.708 µM; in the assay with HLA-A*03:01 (setting [1]), 0.495 µM.

Regarding DICSKHMDAR, the Kd is 1.48 µM in the assay with HLA-A*31:01 (setting [1]); 0.126 µM with HLA-A*33:01 (setting [1]); 0.605 µM with HLA-A*68:01 (setting [1]); not below 69.8 µM with HLA-A*11:01 (setting [1]); not below 47.1 µM in the assay with HLA-A*03:01 (setting [1]).

For the sequence MVMCGGSLY, the Kd is 0.0704 µM in the assay with HLA-A*31:01 (setting [3]); 4.62 µM in the assay with HLA-A*33:01 (setting [3]); 0.0226 µM with HLA-A*68:01 (setting [3]); 0.0739 µM with HLA-A*11:01 (setting [3]); 0.0419 µM with HLA-A*03:01 (setting [3]).

On to ASKTINALVY, for which the Kd with HLA-A*31:01 (setting [1]) was 11.1 µM; with HLA-A*33:01 (setting [1]) it was not below 70 µM; in the assay with HLA-A*68:01 (setting [1]), not below 41.8 µM; in the assay with HLA-A*11:01 (setting [1]), 1.01 µM; with HLA-A*03:01 (setting [1]) it was 0.761 µM.

Take SVYAWERKK: the Kd in the assay with HLA-A*31:01 (setting [3]) was 1.94 µM; with HLA-A*33:01 (setting [3]), not below 38.7 µM; with HLA-A*68:01 (setting [3]), 5.32 µM; with HLA-A*11:01 (setting [3]), 0.23 µM; with HLA-A*03:01 (setting [3]), 0.134 µM.

Turning to TVWEVQGYK, the Kd was determined as 0.0477 µM with HLA-A*31:01 (setting [3]); 0.129 µM in the assay with HLA-A*33:01 (setting [3]); 0.000913 µM in the assay with HLA-A*68:01 (setting [3]); 0.000757 µM in the assay with HLA-A*11:01 (setting [3]); 0.00291 µM in the assay with HLA-A*03:01 (setting [3]).

Consider DSIKDVIHDY, for which the Kd is 15.4 µM with HLA-A*31:01 (setting [1]); not below 70 µM with HLA-A*33:01 (setting [1]); 10.2 µM with HLA-A*68:01 (setting [1]); 5.14 µM in the assay with HLA-A*11:01 (setting [1]); not below 70.1 µM with HLA-A*03:01 (setting [1]).

For the sequence TFKIDAVRYY, the Kd with HLA-A*31:01 (setting [1]) is not below 20.7 µM; with HLA-A*33:01 (setting [1]) it was not below 43.4 µM; with HLA-A*68:01 (setting [1]), 1.43 µM; with HLA-A*11:01 (setting [1]) it was 12.1 µM; in the assay with HLA-A*03:01 (setting [1]) it was not below 70.1 µM.

As for TISKDNLER, the Kd is 0.175 µM with HLA-A*31:01 (setting [1]); 0.49 µM with HLA-A*33:01 (setting [1]); 0.0181 µM in the assay with HLA-A*68:01 (setting [1]); 0.17 µM with HLA-A*11:01 (setting [1]); 2.62 µM with HLA-A*03:01 (setting [1]).

With MFEQYFIYTY, the Kd with HLA-A*31:01 (setting [1]) was 4.51 µM; in the assay with HLA-A*33:01 (setting [1]) it was 5.69 µM; in the assay with HLA-A*68:01 (setting [1]), 8.11 µM; in the assay with HLA-A*11:01 (setting [1]) it was 2.14 µM; in the assay with HLA-A*03:01 (setting [1]), 0.0186 µM.

For THLGPQFCK, the Kd with HLA-A*31:01 (setting [4]) was 15.9 µM; with HLA-A*33:01 (setting [4]) it was not below 77.7 µM; with HLA-A*68:01 (setting [4]) it was 0.338 µM; with HLA-A*11:01 (setting [4]), 0.284 µM; with HLA-A*03:01 (setting [4]) it was 0.88 µM.

On to RTMPNESRVK, for which the Kd with HLA-A*31:01 (setting [1]) is 0.123 µM; with HLA-A*33:01 (setting [1]), not below 70 µM; with HLA-A*68:01 (setting [1]), 1.12 µM; with HLA-A*11:01 (setting [1]), 0.00457 µM; with HLA-A*03:01 (setting [1]), 0.0251 µM.
